Laboratory results taken from the nanobody polyreactivity screen of Harvey et al. (2022).

Assay: yeast display, Sf9 membrane polyspecificity reagent, FACS + sequencing; frameworks hold sequencing errors
Outline: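 Using colony PCR, genes from sorted yeast display clones were amplified, then sequenced on MiSeq at 2 × 250 and filtered by CDR length. The clones had been stained with 10% biotinylated, detergent-solubilized Sf9 membrane reagent for 1 hour at 4 °C and sorted by FACS into low and high (top ~1%) gates on anti-HA and streptavidin fluorescence. Polyreactivity labels come from the gate of origin.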

Sequence	polyreactivity (PSR sort gate)
QVQLVESGGGLVQAGGSLRLSCAASGYIFAWNAMGWYRQAPGKERQLVAAIRSSSGRTYYADSVKGRFTISRDNAKNTVYLLMNSLKPEDTAVYYCAASYAGGAVYYKYYSWGQGTQVTVSS	high polyreactivity
QVQLVESGGGLVQSGGSLRLSCAASGFTFGGYAMGWYRQAPAKERELVAAISQSGGRTYYADSVKGRFTISRDNAKITVYLQMNSLKPEDTAVYYCAKPSTTYYQRGDYWGQGTQVTVSS	high polyreactivity
QVQLVESGGGLVQAGGSLRLSCAASGAIFPSYVMGWYRPAPGKERELVAAITKSTGTTYYADSVKGRFTISRDNAKNTVYLQMNSLKPEDTAVYYCAASGSWSTNTAIYKFYYWGQGTQVTVSS	low polyreactivity
QVQLVESGGGLVQAGGSLRLSCAASGSTFHFYAMGWYRQAPGKERELVASITSRGGNTHYADSVKGRFTISRDNAKNTVYLQMNRLKPEDTAVYYCAARGGWYGTYDYLGQGTQVTVSS	low polyreactivity
QVQLVESGGGLVQAGGSLRLSCAASGFTFRRYAMGWYRQAPGKERELVAAISLRSGRTNYADSVKGRFTISRDNAKNTVYLQMNSLKPEDTAVYYCAAGLYGKRAGTSYGYDYWGQGTQVTVSS	high polyreactivity
QVQLVESGGGLVQAGGSLRLSCAASGRIFRKYAMGWYRQAPGKERELVAAISVGGGSTRYADSEKGRFTISRDYAKYTVYLQMNSLKPEYTAVYYCAADWAYYVASYLYYTFDYWGQGTQVTVSS	low polyreactivity
QVQLVESGGGLVQAGGSLRLSCAASGSIFEYNGMGWSRQAPGKERELVAAITTTGTTDYADSVKGRFTISRDNAKNTVYLQMNSLKPEDTAVYYCAADYTYYYKGEYDYWGQGTQVTVSS	low polyreactivity
QGQLVESWGGLVQAGGSLRLICAASGFNLGRYAKGWYRQAPGKERELVAAISIGGRTNYADSVKERFTISRDNSKTSVYLHLKSLKPEVTAVYYSAADVRGSAYTTGDYWGQGTQVTVTS	low polyreactivity
QGQLVESGGGLGQAGGTLRLSCAASGFTFSFYAMGWYRQAPGKERELVAAISWSGGSTYYADSVKGRFTISRDNAKNTVYLQMNSLKPEDTAVYYCAAKLLYVGRYGYWGHGTQVTVSS	high polyreactivity
QVQLVESGGGLVQAGGSLRLSCAASGSTFGPYTMGWYRQAPGKERELVAAISYSGASTYYADSVKGRFTISRDNAKNTVYLQMNSLKPEDTAVYYCNTVYRYTRARYPYDYWGQGTQVTVSS	high polyreactivity
QVQLVESGGGLVEAGGSLRLSCAASGSILIYVMGWYRQAPGKERDLFASITFSGGSTYYADSVKGRFTISRDNAKNSVYLQMYRLKPEVTAVYYCAAVPLWDYKFFYYLLYDYWGQGTQVTVSS	low polyreactivity
QAELVESGGGLVQAGGSLRLSSAASGIIFDVYAMGWYRQAPGKERELVASIRWRGGSTYYADSVKGRFTISRDNAKNTVFLQMNSLKPEDTAVYYCAADLTRWYGRTYNYWGQGTQVTVSS	high polyreactivity
QVQLQESGGGLVQAGGSLRLSCAASGYISHADEMGWNRQAPGKEHELVASISNGGSTNYADSVKGRFTISRDNAKNTVYLQMNSLKSEDTGVYYCAAWTGQVDIHYYWGQGTQVPVSS	low polyreactivity
QVQLVESGGGLVQAGGSLRLSCGASGSIFPDYAMGWYRQAPGKERELVAAITWSGGSTYYADSVKGRFTISRDNAKNTVNLQMNSLKPEDTAVYYCAAQLDPEWRGYFDQYGYDYWGQGTQVTVST	low polyreactivity
QVQLVESGGGLVQAGGSLRLSCAASGRIFTRYAMGWYRQAPGKARELVAAITSSGGRTYYADSVKGRFTISRDNAKNTVYLQMNSLKQEDTAVYYCATGYINSYYYWGQGTQVTVSS	high polyreactivity
QVQLVESGGGLVQAGGSLRLSCAASGSSFPYNTMGWYRQAPGKERELVAAISSGASTNYADSVKGRFTISRDNAKNTVYLQMNSLKPEDTAVYYCAAKYNANWDFDYWGQGTQVTVSS	low polyreactivity
QVHLVESGGGLVQAGGSLRLSCAASGSIFAAYTMGWYRRAPGKERELVAAISVSTVSTYYADSVKGRFTISRDNAKNTVYLQMNSLNPEDTAVYYCNADATDSYPEKDEHDSWGQGTQVTVSS	low polyreactivity
QVQLVESGGGLVQAGGSLRLSCAASGSIFAQNAMGWYRQAPGKERELVAAITSGGSTYYADSVKGRFTISRDNAKNTVYLQMNSLKPEDTAVYYCAARGWGPFYQYYYLGQGTQVTVSS	high polyreactivity
QVQLVESGGGLVQAGGSLRLSCAASGFTFFSKYVMGWYSQAPRKERELVAAISSSGGTTYYADSVKGRFTISRDNAKNTVYLQMNSLKPEDTAVYYCAARLVSSTFQYNMYYWGQGTQVTVSS	high polyreactivity
QVQLVESGGGLVQAGGSLRLSCAASGRTFGYNAMGWYRQAPGKERELVASISWSGGTTYYADSVKGRFTISRDNAKNTVYLQMNSLKPEDTAVYYCAADRQSYVTRLYRSYWGNYWGQGTQVTVSS	high polyreactivity
QDQLVESGGGLVQAGGSLRLSCAASGSTFRPYAMGWSRQAPGKERELVAAITTGGSTNYADSVKGRFTISRDNAKNTVYLQMNSLKPEDTAVYYCNADYDVLNWGYYDWGYDYWGHGTQVTVSS	low polyreactivity
QVQLVESGGGLVQAGGSLRLTCAASGRIFQRYAMGWYRQAPGKERELVAGITSSGGSTYYADSVKGRFTISRDNAKNTVYLQMNSLKPEDTAVYYCNAGGELRYYGYRAGGTTRSYDYWGQGTQVTVSS	low polyreactivity

Sequence	polyreactivity (PSR sort gate)
QVQLVESGGGLVQAGGSLRLSCAASGFTFGRNAIVWYRQAPGKERELVASIDWSGGSTYYADSVKGRFTISRDNAKNTVYLQMNSLKPEDTAVYYCAVGPNSVGNRSYGFDYWGQGTQVTVSS	low polyreactivity
QVQLLESGVCLVQAGGSLRLSCAASGFTFGVYAMGWYRQAPGKERELVAAISTTVGSTYYADSVKGRFTISRDNAKKTVYLQMNSLKPEDTAVYYCAAEYTGYINYYIYEYWGQGTQVTVSS	low polyreactivity
QGQLVESGGGLVQAGGSLRLSCAASGYIFNPNAMGWYRQGPGKERDLFAGITWRGDRTYYADSVKGRFTISRDNAKNTVYLQMNCLKPEDTAVYYCNGAGADRWSYSSNIRRYYYWGHGTQVTVSS	high polyreactivity
QVQLVESGGGLVQAGGSLRLSCAAYGRILRYYAMGWYRQAPGKERELVASITSGGSTYYADSVKGRFTISRDNAKNTVYLQMNSLKPEDTAVYYCAARNIYRVDLSYYAYDYWGQGTQVTVSS	high polyreactivity
QVQLVESGGGLVQAGGSLRLSCAASGLILVPNTMGWYRQAPGKERELVAAISYSGGGTYYADSVKGRFTISRDNAKNTVYLQMNSLKAEDTAVYYCAAYVKRESAPYGYWGHGTQVTVSS	low polyreactivity
QVQLVESGGGLVQAGGSLRLSCAASGFTFKGNAMGWYRQAPGKERELVATITQSAGSTYYADSVKGRFTISRDNAKNTVYLQMNSLKPEDTAVYYCNADPITLYYYSWYNYWGQGTQVTVSS	low polyreactivity
QVQLVESGGGLVQAGGSLRLSCAASGSTFRVYAMGWYRQAPGKERELVAAISRSGSITYYADSVKGRFTISRDNAKNTVYLQMNSLKPEDTAVYYCAARTYSRFTASTYYYWGQGTQVTVSS	high polyreactivity
QVQLLESGGGLVQPGGSLRLSCAASGSTFIGYAMGWYRQAPGKETELVAAISWSGGRTYYADSVKGRFTISRDNAKNTVYLQMNSLKAEDTAVYYCNTVPYRISVQFNYWGQGTQVTVSS	high polyreactivity
QVQLVESGGGLVQAVGSLRLSSAASGSIFYVYAMGWYRQAPGKERELVAAMTNYADSVKGRFTISRDNAKNTVYLQMNSLKPEDTAVYYCAADWWRVEMDYWGQGTQVTVSS	low polyreactivity
QVQLVESGGGLVQAGGSLRLSCAASGSIFLYNAMGWYRQAPGKERELVATITYIGGRTYYADSVKGRFTISRDNAKNTVYLQMNSLKQEDTAVYYCAAEYYVISSPSFYEYDYWGQGTQVTVSS	low polyreactivity
QVQLVESGGGLVQAGGSLRLSCAASGFTFPVYALGWYRQAPGKEREFVAAITKSGGGTYYADSVKGRFTISRDNAKNTVYLQMTSLKPEDTAVYYCAKASRRFLTLGYDYWGQGTQVTVSS	high polyreactivity
QVQLVESGGGLVQAGGSLRLSCAASGSINHYAMGWYRQAPGKERELVAAISSSGGTTYYADSVKGRFTISRDNAKNTVYLQMNSLKPEDTAVYYCAADKLSGGLDYWGQGTQVTVSS	high polyreactivity
QVQLVESGGGLVQAGGSLRLSCAASGRIFSQNAMGWYRKAPGKERELVAAIRYSTGSTYYADSVKGRFTISRDNAKNTVYLQMNSLKPEDTAVYYCAADRWVSGYRRPRRGQAHYYWGQGTQVTVSS	high polyreactivity
QVQLVESGGGLVQAGGSLRLSCAASGFIFRRNAMGWYRQAPGKERELVASIRSGGSTKYADSVKGRFTISRDNAKNTVYLQMNSLKPEDTAVYYCAKDRYHISFFYQMEYWGQGTQVTVSS	low polyreactivity
QVQLVESGGCLVQAGGSLRLSCAASGLTIFVNAMGWYRQAPGKERELVATISGGGSTYYADSVKGRFTISRDNAKNTVYLQMNSLKPEDTAVYYCNGGGYGLRGDYWGQGTQVTVSS	low polyreactivity
QVQLVESGGGLVQAGGSLRLSCAASGRIFRYNAMGWYRQAPGKERELVAAISRSGGSTYYADSVKGRFTISRDNAKNTVYLQINSLKPEDTAVYYCAVGSPYGGRAPWVRGGDYWGQGTQVTVSS	high polyreactivity
QVQLVESGGGLVQAGGSLRLSCAASGSTFRRNAMGWYRQAPGKERELVAAISSGGGSTYYADSVKGRFTISRDNAKNTVYLQMNSLKPEVTAVYYCAAGYFGHYVEYYYWGQGTQVTVSS	high polyreactivity
QVQLVESGGGLVQAGGSLRLSCAASGSTFYRNAMGWYRQAPGKERELVAAISTSGGSTYYADSVKGRFTISRDNAKNTVYLQMNSLKPEDTAVYYCATDSYYFDVMYGWKEYDYWGQGTQVTVSS	high polyreactivity
QVQLVESGGGLVQAGGSLRLSCAASGFTIERNAMGWYRQAPGKERELVATISQSGTNTYYADSVKGRFTISRDNAKNTVYLQMNSLKPEETAVYYCNARDIFYRYDYWGQGTLVTVSS	low polyreactivity
QVQLVESGGGLVQAGGSLRLSCAPSGRILGYYAMGWYRQAPGKERELVAAISSGDSTNYADSVKGRFTISRDNAKYTVYLQMNSLKPEDTAVYYCAAKGWIWNAYNYWGQGTQVTVSS	low polyreactivity
QVQLVESGGGLVQAGGTLRLSCAASGSIFNPYAMGWYRQAPGKDRELVATITRPGRTNYADSVKGRFTISRDHAENTVYLQMNSLKPEDTAVYYCAAYTSYGVYYWGQGTQVTVSS	high polyreactivity
